Reference: patent US20230055694A1 (INSTIL BIO UK, published 2023)

T1: rhCEACAM5-Fc (human, UniProt P06731 35-685)
T1 construct: Bought staining reagent; construct limits and Fc not described; also called primary rhCEACAM5-Fc antibody; CEA.hFc protein; not shown: Fc tag detected with anti-IgG-Fc-PE
T1 sequence (looked up): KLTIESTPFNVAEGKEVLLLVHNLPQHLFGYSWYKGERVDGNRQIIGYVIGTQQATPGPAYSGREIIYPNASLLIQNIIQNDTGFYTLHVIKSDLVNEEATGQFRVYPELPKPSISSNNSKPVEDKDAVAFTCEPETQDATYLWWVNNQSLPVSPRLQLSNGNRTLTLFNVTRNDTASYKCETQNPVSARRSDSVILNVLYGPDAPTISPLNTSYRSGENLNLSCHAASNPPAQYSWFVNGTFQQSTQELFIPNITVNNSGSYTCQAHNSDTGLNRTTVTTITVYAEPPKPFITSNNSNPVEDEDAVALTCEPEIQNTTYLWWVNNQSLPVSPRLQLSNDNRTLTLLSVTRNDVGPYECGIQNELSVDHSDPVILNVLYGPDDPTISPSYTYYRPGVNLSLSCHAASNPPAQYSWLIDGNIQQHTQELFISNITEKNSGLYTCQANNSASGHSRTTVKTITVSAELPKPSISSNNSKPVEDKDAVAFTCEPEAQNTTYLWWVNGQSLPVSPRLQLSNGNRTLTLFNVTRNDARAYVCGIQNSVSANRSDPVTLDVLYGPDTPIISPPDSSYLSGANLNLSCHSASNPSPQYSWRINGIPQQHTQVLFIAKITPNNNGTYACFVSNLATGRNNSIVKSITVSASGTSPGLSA

B1: anti-CEA CoStAR CTP232 (OSM1 signal peptide, hMFE23 scFv, AAAGSGGSG linker, CD8 EC spacer, CD8 TM, CD28.CD40) (receptor)
chain: QVKLEQSGAEVVKPGASVKLSCKASGFNIKDSYMHWLRQGPGQRLEWIGWIDPENGDTEYAPKFQGKATFTTDTSANTAYLGLSSLRPEDTAVYYCNEGTPTGPYYFDYWGQGTLVTVSSGGGGSGGGGSGGGGSENVLTQSPSSMSASVGDRVNIACSASSSVSYMHWFQQKPGKSPKLWIYSTSNLASGVPSRFSGSGSGTDYSLTISSMQPEDAATYYCQQRSSYPLTFGGGTKLEIKAAAGSGGSGFVPVFLPAKPTTTPAPRPPTPAPTIASQPLSLRPEACRPAAGGAVHTRGLDFACDIYIWAPLAGTCGVLLLSLVITLYCNHRNRSKRSRLLHSDYMNMTPRRPGPTRKHYQPYAPPRDFAAYRSKKVAKKPTNKAPHPKQEPQEINFPDDLPGSNTAAPVQETLHGCQPVTQEDGKESRISVQERQ
notes: On transduced human T cells
B2: anti-CEA CoStAR CTP244 (OSM1 signal peptide, hMFE23 scFv, AAAGSGGSG linker, CD28 (trunc IIH) spacer, CD28 TM, CD28.CD40) (receptor)
chain: QVKLEQSGAEVVKPGASVKLSCKASGFNIKDSYMHWLRQGPGQRLEWIGWIDPENGDTEYAPKFQGKATFTTDTSANTAYLGLSSLRPEDTAVYYCNEGTPTGPYYFDYWGQGTLVTVSSGGGGSGGGGSGGGGSENVLTQSPSSMSASVGDRVNIACSASSSVSYMHWFQQKPGKSPKLWIYSTSNLASGVPSRFSGSGSGTDYSLTISSMQPEDAATYYCQQRSSYPLTFGGGTKLEIKAAAGSGGSGIIHVKGKHLCPSPLFPGPSKPFWVLVVVGGVLACYSLLVTVAFIIFWVRSKRSRLLHSDYMNMTPRRPGPTRKHYQPYAPPRDFAAYRSKKVAKKPTNKAPHPKQEPQEINFPDDLPGSNTAAPVQETLHGCQPVTQEDGKESRISVQERQ
notes: On transduced human T cells
B3: MOV19.CD28.CD40 CoStAR (receptor, part only; not given: tag, linker, CD28 and CD40 parts, part only)
chain, part: QVQLQQSGAELVKPGASVKISCKASGYSFTGYFMNWVKQSHGKSLEWIGRIHPYDGDTFYNQNFKDKATLTVDKSSNTAHMELLSLTSEDFAVYYCTRYDGSRAMDYWGQGTTVTVSSGGGGSGGGGSGGGGSDIELTQSPASLAVSLGQRAIISCKASQSVSFAGTSLMHWYHQKPGQQPKLLIYRASNLEAGVPTRFSGSGSKTDFTLNIHPVEEEDAATYYCQQSREYPYTFGGGTKLEIK
B4: MOV19.CD28 CoStAR (receptor, part only; not given: tag, linker and CD28 part, part only)
chain, part: QVQLQQSGAELVKPGASVKISCKASGYSFTGYFMNWVKQSHGKSLEWIGRIHPYDGDTFYNQNFKDKATLTVDKSSNTAHMELLSLTSEDFAVYYCTRYDGSRAMDYWGQGTTVTVSSGGGGSGGGGSGGGGSDIELTQSPASLAVSLGQRAIISCKASQSVSFAGTSLMHWYHQKPGQQPKLLIYRASNLEAGVPTRFSGSGSKTDFTLNIHPVEEEDAATYYCQQSREYPYTFGGGTKLEIK

How the values were obtained:
[1] = biological target: T1, rhCEACAM5-Fc; assay: flow cytometry of transduced T cells: CoStAR detected with primary rhCEACAM5-Fc and secondary anti-IgG-Fc-PE (FIG. 26)
[2] = biological target: Human folate receptor alpha (FolR) on cells (human) (UniProt P15328); assay: cell-based or functional assay
Chain of Human folate receptor alpha (FolR) on cells (human) (P15328 25-234): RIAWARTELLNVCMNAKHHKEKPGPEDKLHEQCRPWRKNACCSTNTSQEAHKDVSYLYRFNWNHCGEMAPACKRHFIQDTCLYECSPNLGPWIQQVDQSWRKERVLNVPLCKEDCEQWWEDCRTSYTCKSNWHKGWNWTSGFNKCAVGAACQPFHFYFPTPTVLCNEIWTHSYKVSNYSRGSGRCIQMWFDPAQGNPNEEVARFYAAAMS

Binder	binding result [1]	enhancement of Bcl-XL induction in the presence of OvCAR-OKT3 [2] [%]	mean fold expansion of transduced T cells over 21 days with OvCAR-OKT3 (CA125+/Folate receptor+/CEA-) [2] [fold]	also measured
B1	binds			
B2	binds			
B3		35	1300	CD137 expression [2]: 50%; CD137 expression of CoStAR+ TIL after coculture with FolR high expressing tumour digest [2]: 50%; CD137 expression of CoStAR+ TIL after coculture with FolR low expressing tumour digest [2]: > 20%; IL-2 production [2]: 5%; TNFα production [2]: 15%
B4		20	187	enhancement of IL-2 induction in the presence of OvCAR-OKT3 [2]: 20%
